The source of these data is patent publication US20160272693A1 (ZEALAND PHARMA A S, published 2016).

*1 amine or outer side, *2 acyl side, *3 side chain or, on linkers, in order; H or OH if unused. Bridges are numbered along the chain shown (N, C = ends). [ ]: non-standard residue; d: D form. The star is where a group is joined. C20 diacid = O=C(O)CCCCCCCCCCCCCCCCCCC(=O)*; γGlu = O=C(O)[C@H](CCC(=O)[*:2])N[*:1]; Hyp = O=C(O)[C@@H]1C[C@@H](O)CN1; NMeI = CC[C@H](C)[C@H](NC)C(=O)O; Aad = N[C@@H](CCCC(=O)O)C(=O)O; Sar = CNCC(=O)O

The experiment concerns the target T1, human amylin receptor 3 (hAMYR3), hCTR2 co-expressed with human receptor activity modifying protein 3 (hRAMP3) (human, UniProt P30988 25-474; O60896 24-148).
T1 sequence (looked up) 1: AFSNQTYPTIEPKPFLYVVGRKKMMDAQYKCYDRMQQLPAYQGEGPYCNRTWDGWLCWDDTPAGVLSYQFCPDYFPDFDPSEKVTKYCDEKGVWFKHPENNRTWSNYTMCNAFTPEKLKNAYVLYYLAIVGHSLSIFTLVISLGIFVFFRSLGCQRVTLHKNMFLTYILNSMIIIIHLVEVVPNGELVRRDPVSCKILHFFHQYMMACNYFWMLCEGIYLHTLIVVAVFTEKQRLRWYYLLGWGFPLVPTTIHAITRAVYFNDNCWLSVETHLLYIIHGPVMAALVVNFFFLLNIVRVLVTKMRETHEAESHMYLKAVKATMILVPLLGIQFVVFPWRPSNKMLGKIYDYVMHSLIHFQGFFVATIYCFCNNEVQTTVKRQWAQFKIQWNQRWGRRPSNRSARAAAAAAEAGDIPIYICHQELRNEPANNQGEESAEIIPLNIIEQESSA
T1 sequence (looked up) 2: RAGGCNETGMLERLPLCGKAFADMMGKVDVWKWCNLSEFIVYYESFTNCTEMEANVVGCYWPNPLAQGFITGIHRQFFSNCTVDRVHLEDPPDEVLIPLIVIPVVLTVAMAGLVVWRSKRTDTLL
Put plainly: cell-based or functional assay.

B1: [19CD]-isoGlu-R-C( )-NTAT-C( )-ATQRLAHFLQRSSF-Gly(Me)-A-Ile(Me)-LSSTEVGS-Aad-T-Hyp-NH2 (Compd. 75) (peptide)
peptide: {C20 diacid}-[γGlu]RCNTATCATQRLAHFLQRSSF[Sar]A[NMeI]LSSTEVGS[Aad]T[Hyp]-NH2
modifications: disulfide 3-8
SMILES: CC[C@H](C)[C@@H](C(=O)N[C@@H](CC(C)C)C(=O)N[C@@H](CO)C(=O)N[C@@H](CO)C(=O)N[C@H](C(=O)N[C@@H](CCC(=O)O)C(=O)N[C@H](C(=O)NCC(=O)N[C@@H](CO)C(=O)N[C@@H](CCCC(=O)O)C(=O)N[C@H](C(=O)N1C[C@H](O)C[C@H]1C(N)=O)[C@@H](C)O)C(C)C)[C@@H](C)O)N(C)C(=O)[C@H](C)NC(=O)CN(C)C(=O)[C@H](Cc1ccccc1)NC(=O)[C@H](CO)NC(=O)[C@H](CO)NC(=O)[C@H](CCCNC(=N)N)NC(=O)[C@H](CCC(N)=O)NC(=O)[C@H](CC(C)C)NC(=O)[C@H](Cc1ccccc1)NC(=O)[C@H](Cc1c[nH]cn1)NC(=O)[C@H](C)NC(=O)[C@H](CC(C)C)NC(=O)[C@H](CCCNC(=N)N)NC(=O)[C@H](CCC(N)=O)NC(=O)[C@@H](NC(=O)[C@H](C)NC(=O)[C@@H]1CSSC[C@H](NC(=O)[C@H](CCCNC(=N)N)NC(=O)CC[C@H](NC(=O)CCCCCCCCCCCCCCCCCCC(=O)O)C(=O)O)C(=O)N[C@@H](CC(N)=O)C(=O)N[C@@H]([C@@H](C)O)C(=O)N[C@@H](C)C(=O)N[C@@H]([C@@H](C)O)C(=O)N1)[C@@H](C)O
As for B1, the “hAMYR3 EC50 (nM); cAMP induction” value is 0.26 nM.

B2: [19CD]-isoGlu-R-C( )-NTAT-C( )-ATQRLAHFLQRF-Gly(Me)-A-Ile(Me)-LSSTEVGSGT-Hyp-NH2 (Compd. 79) (peptide)
peptide: {C20 diacid-γGlu}-RCNTATCATQRLAHFLQRF[Sar]A[NMeI]LSSTEVGSGT[Hyp]-NH2
modifications: disulfide 2-7
SMILES: CC[C@H](C)[C@@H](C(=O)N[C@@H](CC(C)C)C(=O)N[C@@H](CO)C(=O)N[C@@H](CO)C(=O)N[C@H](C(=O)N[C@@H](CCC(=O)O)C(=O)N[C@H](C(=O)NCC(=O)N[C@@H](CO)C(=O)NCC(=O)N[C@H](C(=O)N1C[C@H](O)C[C@H]1C(N)=O)[C@@H](C)O)C(C)C)[C@@H](C)O)N(C)C(=O)[C@H](C)NC(=O)CN(C)C(=O)[C@H](Cc1ccccc1)NC(=O)[C@H](CCCNC(=N)N)NC(=O)[C@H](CCC(N)=O)NC(=O)[C@H](CC(C)C)NC(=O)[C@H](Cc1ccccc1)NC(=O)[C@H](Cc1c[nH]cn1)NC(=O)[C@H](C)NC(=O)[C@H](CC(C)C)NC(=O)[C@H](CCCNC(=N)N)NC(=O)[C@H](CCC(N)=O)NC(=O)[C@@H](NC(=O)[C@H](C)NC(=O)[C@@H]1CSSC[C@H](NC(=O)[C@H](CCCNC(=N)N)NC(=O)CC[C@H](NC(=O)CCCCCCCCCCCCCCCCCCC(=O)O)C(=O)O)C(=O)N[C@@H](CC(N)=O)C(=O)N[C@@H]([C@@H](C)O)C(=O)N[C@@H](C)C(=O)N[C@@H]([C@@H](C)O)C(=O)N1)[C@@H](C)O
Turning to B2, the “hAMYR3 EC50 (nM); cAMP induction” value came to 0.23 nM.

B3: [19CD]-isoGlu-R-C( )-PTAT-C( )-ATERLAHFLQRSSF-Gly(Me)-A-Ile(Me)-LSSTEVGS-Aad-T-Hyp-NH2 (Compd. 76) (peptide)
peptide: {C20 diacid}-[γGlu]RCPTATCATERLAHFLQRSSF[Sar]A[NMeI]LSSTEVGS[Aad]T[Hyp]-NH2
modifications: disulfide 3-8
SMILES: CC[C@H](C)[C@@H](C(=O)N[C@@H](CC(C)C)C(=O)N[C@@H](CO)C(=O)N[C@@H](CO)C(=O)N[C@H](C(=O)N[C@@H](CCC(=O)O)C(=O)N[C@H](C(=O)NCC(=O)N[C@@H](CO)C(=O)N[C@@H](CCCC(=O)O)C(=O)N[C@H](C(=O)N1C[C@H](O)C[C@H]1C(N)=O)[C@@H](C)O)C(C)C)[C@@H](C)O)N(C)C(=O)[C@H](C)NC(=O)CN(C)C(=O)[C@H](Cc1ccccc1)NC(=O)[C@H](CO)NC(=O)[C@H](CO)NC(=O)[C@H](CCCNC(=N)N)NC(=O)[C@H](CCC(N)=O)NC(=O)[C@H](CC(C)C)NC(=O)[C@H](Cc1ccccc1)NC(=O)[C@H](Cc1c[nH]cn1)NC(=O)[C@H](C)NC(=O)[C@H](CC(C)C)NC(=O)[C@H](CCCNC(=N)N)NC(=O)[C@H](CCC(=O)O)NC(=O)[C@@H](NC(=O)[C@H](C)NC(=O)[C@@H]1CSSC[C@H](NC(=O)[C@H](CCCNC(=N)N)NC(=O)CC[C@H](NC(=O)CCCCCCCCCCCCCCCCCCC(=O)O)C(=O)O)C(=O)N2CCC[C@H]2C(=O)N[C@@H]([C@@H](C)O)C(=O)N[C@@H](C)C(=O)N[C@@H]([C@@H](C)O)C(=O)N1)[C@@H](C)O
Consider B3, for which the “hAMYR3 EC50 (nM); cAMP induction” value is 0.49 nM.

B4: [19CD]-isoGlu-R-C( )-GTAT-C( )-ATERLAHFLQRSSF-Gly(Me)-A-Ile(Me)-LSSTEVGSNTP-NH2 (Compd. 78) (peptide)
peptide: {C20 diacid}-[γGlu]RCGTATCATERLAHFLQRSSF[Sar]A[NMeI]LSSTEVGSNTP-NH2
modifications: disulfide 3-8
SMILES: CC[C@H](C)[C@@H](C(=O)N[C@@H](CC(C)C)C(=O)N[C@@H](CO)C(=O)N[C@@H](CO)C(=O)N[C@H](C(=O)N[C@@H](CCC(=O)O)C(=O)N[C@H](C(=O)NCC(=O)N[C@@H](CO)C(=O)N[C@@H](CC(N)=O)C(=O)N[C@H](C(=O)N1CCC[C@H]1C(N)=O)[C@@H](C)O)C(C)C)[C@@H](C)O)N(C)C(=O)[C@H](C)NC(=O)CN(C)C(=O)[C@H](Cc1ccccc1)NC(=O)[C@H](CO)NC(=O)[C@H](CO)NC(=O)[C@H](CCCNC(=N)N)NC(=O)[C@H](CCC(N)=O)NC(=O)[C@H](CC(C)C)NC(=O)[C@H](Cc1ccccc1)NC(=O)[C@H](Cc1c[nH]cn1)NC(=O)[C@H](C)NC(=O)[C@H](CC(C)C)NC(=O)[C@H](CCCNC(=N)N)NC(=O)[C@H](CCC(=O)O)NC(=O)[C@@H](NC(=O)[C@H](C)NC(=O)[C@@H]1CSSC[C@H](NC(=O)[C@H](CCCNC(=N)N)NC(=O)CC[C@H](NC(=O)CCCCCCCCCCCCCCCCCCC(=O)O)C(=O)O)C(=O)NCC(=O)N[C@@H]([C@@H](C)O)C(=O)N[C@@H](C)C(=O)N[C@@H]([C@@H](C)O)C(=O)N1)[C@@H](C)O
On to B4, for which the “hAMYR3 EC50 (nM); cAMP induction” value was 0.24 nM.

B5: [19CD]-isoGlu-R-C( )-GTAT-C( )-ATERLAHFLQRF-Gly(Me)-A-Ile(Me)-LSSTEVGSNT-Hyp-NH2 (Compd. 77) (peptide)
peptide: {C20 diacid}-[γGlu]RCGTATCATERLAHFLQRF[Sar]A[NMeI]LSSTEVGSNT[Hyp]-NH2
modifications: disulfide 3-8
SMILES: CC[C@H](C)[C@@H](C(=O)N[C@@H](CC(C)C)C(=O)N[C@@H](CO)C(=O)N[C@@H](CO)C(=O)N[C@H](C(=O)N[C@@H](CCC(=O)O)C(=O)N[C@H](C(=O)NCC(=O)N[C@@H](CO)C(=O)N[C@@H](CC(N)=O)C(=O)N[C@H](C(=O)N1C[C@H](O)C[C@H]1C(N)=O)[C@@H](C)O)C(C)C)[C@@H](C)O)N(C)C(=O)[C@H](C)NC(=O)CN(C)C(=O)[C@H](Cc1ccccc1)NC(=O)[C@H](CCCNC(=N)N)NC(=O)[C@H](CCC(N)=O)NC(=O)[C@H](CC(C)C)NC(=O)[C@H](Cc1ccccc1)NC(=O)[C@H](Cc1c[nH]cn1)NC(=O)[C@H](C)NC(=O)[C@H](CC(C)C)NC(=O)[C@H](CCCNC(=N)N)NC(=O)[C@H](CCC(=O)O)NC(=O)[C@@H](NC(=O)[C@H](C)NC(=O)[C@@H]1CSSC[C@H](NC(=O)[C@H](CCCNC(=N)N)NC(=O)CC[C@H](NC(=O)CCCCCCCCCCCCCCCCCCC(=O)O)C(=O)O)C(=O)NCC(=O)N[C@@H]([C@@H](C)O)C(=O)N[C@@H](C)C(=O)N[C@@H]([C@@H](C)O)C(=O)N1)[C@@H](C)O
As to B5, the “hAMYR3 EC50 (nM); cAMP induction” value turned out to be 0.42 nM.

B6: [19CD]-isoGlu-R-C( )-GTAT-C( )-ATERLAHFLERSSF-Gly(Me)-A-Ile(Me)-LSSTEVGSNT-Hyp-NH2 (Compd. 8) (peptide)
peptide: {C20 diacid}-[γGlu]RCGTATCATERLAHFLERSSF[Sar]A[NMeI]LSSTEVGSNT[Hyp]-NH2
modifications: disulfide 3-8
Consider B6, for which the “hAMYR3 EC50 (nM); cAMP induction” value was 0.36 nM.
